Data taken from patent EP4552657A1, “RADIOPHARMACEUTICAL COMPLEXES AND COMBINATIONS” (priority 2023, dated 2025).

Assays:
[1] = target: human recombinant DLL3 antigen (human) (UniProt Q9NYJ7); experiment: IRF assay on recombinant human DLL3 coated M-270-carboxy Dynabeads, 10 µg beads
[2] = target: CEACAM5 coated on M270-carboxy Dynabeads (UniProt P06731); experiment: IRF assay on CEACAM5-coated M270-carboxy Dynabeads, 333 µg beads
[3] = target: CEACAM5 coated on M270-carboxy Dynabeads (UniProt P06731); experiment: IRF assay on CEACAM5-coated M270-carboxy Dynabeads, 33 µg beads
[4] = target: CEACAM5 coated on M270-carboxy Dynabeads (UniProt P06731); experiment: IRF assay on CEACAM5-coated M270-carboxy Dynabeads, 100 µg beads

Chain of CEACAM5 coated on M270-carboxy Dynabeads (P06731 35-685 limits assumed): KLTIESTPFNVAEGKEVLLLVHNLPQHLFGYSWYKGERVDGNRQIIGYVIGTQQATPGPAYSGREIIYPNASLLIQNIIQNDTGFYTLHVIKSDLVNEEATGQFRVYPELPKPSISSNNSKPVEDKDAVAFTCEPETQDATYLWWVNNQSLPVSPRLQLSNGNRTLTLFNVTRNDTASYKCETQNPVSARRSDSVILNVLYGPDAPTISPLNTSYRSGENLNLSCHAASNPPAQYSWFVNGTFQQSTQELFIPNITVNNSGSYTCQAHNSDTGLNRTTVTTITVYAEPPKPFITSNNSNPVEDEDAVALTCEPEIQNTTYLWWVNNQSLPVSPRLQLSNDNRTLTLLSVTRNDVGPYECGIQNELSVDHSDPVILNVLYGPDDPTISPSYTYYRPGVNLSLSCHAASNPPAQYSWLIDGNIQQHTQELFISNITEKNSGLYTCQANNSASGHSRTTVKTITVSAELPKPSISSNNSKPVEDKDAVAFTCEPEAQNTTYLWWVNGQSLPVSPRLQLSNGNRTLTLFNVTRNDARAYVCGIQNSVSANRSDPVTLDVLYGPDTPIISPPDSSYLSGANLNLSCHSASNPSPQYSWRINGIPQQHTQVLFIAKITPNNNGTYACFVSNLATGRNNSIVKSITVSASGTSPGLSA
Chain of human recombinant DLL3 antigen (human) (Q9NYJ7 27-492 limits assumed): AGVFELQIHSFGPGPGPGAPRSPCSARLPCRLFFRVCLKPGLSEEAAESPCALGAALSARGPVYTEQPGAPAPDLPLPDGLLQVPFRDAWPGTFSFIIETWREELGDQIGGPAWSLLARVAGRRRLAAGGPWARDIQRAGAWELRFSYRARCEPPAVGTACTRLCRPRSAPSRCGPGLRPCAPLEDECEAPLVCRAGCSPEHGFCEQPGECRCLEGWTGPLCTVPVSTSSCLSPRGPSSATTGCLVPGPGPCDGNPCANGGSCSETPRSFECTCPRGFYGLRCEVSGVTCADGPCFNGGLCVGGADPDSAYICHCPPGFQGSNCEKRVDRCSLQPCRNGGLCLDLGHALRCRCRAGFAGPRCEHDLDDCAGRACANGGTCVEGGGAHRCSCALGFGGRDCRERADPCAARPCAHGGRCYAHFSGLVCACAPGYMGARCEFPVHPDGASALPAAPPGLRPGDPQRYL

## Ac-225-macropa-Rovalpituzumab (antibody)
[1]
  maximum binding (IRF): 86%

## Ac-225-macropa-Labetuzumab (antibody)
[2]
  IRF (immunoreactive fraction): 97%
[3]
  IRF (immunoreactive fraction): 43%
[4]
  IRF (immunoreactive fraction): 88%
